Earlier results as cited in patent US6153653A, “Choline compositions and uses thereof” (Protarga, Inc., priority 1997, dated 2000).

Settings: relative to native tPA

B1: C84S tPA: tPA variants in which a cysteine at position 84 of the growth factor domain of native tPA is replaced by serine (protein, UniProt P00750 36-562, looked up, variant C84S)
Tissue-type plasminogen …: SYQVICRDEKTQMIYQQHQSWLRPVLRSNRVEYCWCNSGRAQCHSVPVKSCSEPRCFNGGTCQQALYFSDFVCQCPEGFAGKCSEIDTRATCYEDQGISYRGTWSTAESGAECTNWNSSALAQKPYSGRRPDAIRLGLGNHNYCRNPDRDSKPWCYVFKAGKYSSEFCSTPACSEGNSDCYFGNGSAYRGTHSLTESGASCLPWNSMILIGKVYTAQNPSAQALGLGKHNYCRNPDGDAKPWCHVLKNRRLTWEYCDVPSCSTCGLRQYSQPQFRIKGGLFADIASHPWQAAIFAKHRRSPGERFLCGGILISSCWILSAAHCFQERFPPHHLTVILGRTYRVVPGEEEQKFEVEKYIVHKEFDDDTYDNDIALLQLKSDSSRCAQESSVVRTVCLPPADLQLPDWTECELSGYGKHEALSPFYSERLKEAHVRLYPSSRCTSQHLLNRTVTDNMLCAGDTRSGGPQANLHDACQGDSGGPLVCLNDGRMTLVGIISWGLGCGQKDVPGVYTKVTNYLDWIRDNMRP
In vivo
  in vivo half life (in words): longer in vivo half life than native tPA
  functional activity (in words): retains the functional activity of native tPA
